Test results reported in PMC3229559.

Target: PKC-α (UniProt P20444)
Assay: biotin-peptide pull-down from heart extract
Conditions: reference: non-phosphorylated peptide; sites S179

## syndecan-4 cytoplasmic part, 171-198 (from UniProt O35988) pS179 peptide
  binding against the reference: weaker
